T1: recombinant soluble human C4.4a (human, UniProt O95274 31-308)
T1 construct: recombinant, soluble, purified protein; also called hC4.4a; full length C4.4a
T1 sequence: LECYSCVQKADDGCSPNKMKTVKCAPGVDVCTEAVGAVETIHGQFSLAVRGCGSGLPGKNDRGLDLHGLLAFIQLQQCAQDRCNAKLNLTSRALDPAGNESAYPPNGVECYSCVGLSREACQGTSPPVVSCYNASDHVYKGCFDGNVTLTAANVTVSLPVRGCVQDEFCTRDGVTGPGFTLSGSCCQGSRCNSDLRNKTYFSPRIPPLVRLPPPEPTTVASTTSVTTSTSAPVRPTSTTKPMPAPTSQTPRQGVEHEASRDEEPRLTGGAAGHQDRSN

T2: recombinant soluble murine C4.4a (mouse, UniProt Q91YK8 33-343, limits assumed)
T2 construct: also called mouse C4.4a; mC4.4a
T2 sequence (looked up): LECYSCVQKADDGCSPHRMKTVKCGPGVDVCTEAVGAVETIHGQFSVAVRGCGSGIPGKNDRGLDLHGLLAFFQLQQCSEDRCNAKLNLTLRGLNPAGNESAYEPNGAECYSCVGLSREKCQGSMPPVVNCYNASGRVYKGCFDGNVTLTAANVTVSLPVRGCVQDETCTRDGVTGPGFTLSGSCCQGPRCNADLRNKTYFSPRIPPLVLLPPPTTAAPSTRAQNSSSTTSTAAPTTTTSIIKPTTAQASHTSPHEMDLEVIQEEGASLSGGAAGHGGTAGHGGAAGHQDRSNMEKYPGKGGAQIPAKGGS


What was measured:
[1] = target: T1, recombinant soluble human C4.4a; assay: direct ELISA, Fab supernatant on coated human C4.4a, signal normalized to Fab quantity
Experimental: (§1) Cultures were diluted in 10% Smart Block in PBST and bound to the MTP plates for 1 h at 20° C. After washing with PBST, captured antibodies were incubated with a HRP-coupled anti-lambda antibody (Sigma, A5175) and detected by incubating the plate with 10 μM amplex red substrate (Invitrogen, A12222) for 30 minutes at 20° C. in the dark followed by fluorescence measurement. Determined quantification signals were checked to be in the dynamic range of an calibration series built up with concentrated parental Fab (M31-B01 or M20-D02-S-A) expression culture supernatant allowing a relative quantification of each individual Fab expression sample.
(§2) To determine the activity of the mutated Fab variants on recombinant soluble human or mouse C4.4a a direct ELISA assay format was used. Briefly, MTP plates (Nunc maxisorp black, 460518) were coated with 2 μg/ml either human or mouse C4.4a diluted in coating buffer (Candor Bioscience GmbH, 121125) and incubated for 15 h at 4° C. After washing 3 times with PBST, plates were blocked with 100% Smart Block (Candor Bioscience GmbH, 113500) for 1 h at 20° C. and the washing steps were repeated. For binding of the Fab antibody fragments 20 μl of culturing supernatants were added to the plates for 1 h at 20° C. followed by washing. In some cases the washing stringency was increased by an additional incubation step with 10% Smart Block in PBST for 90 min followed by washing 3 times with PBST (“process B” in Table 10b). Bound parental Fabs and variants were then detected by a HA-epitope tag specific antibody HRP conjugate (Bethyl, A190-108P). 10 μM amplex red substrate (Invitrogen, A12222) was added to the plates and the fluorescence signal was detected using a common fluorescence reader, e.g. Tecan Ultra. Quantity normalized affinity signals were calculated as ratios of background corrected affinity and quantification signals in the respective ELISA: (Signalaffinity−Backgroundaffinity)/(Signalquantity−Backgroundquantity). The resulting values correlate mainly with the affinity in a positive manner, whereas not normalized values correlate additionally with the concentration of the binding Fab in the sample.

[2] = target: T2, recombinant soluble murine C4.4a; assay: direct ELISA, Fab supernatant on coated mouse C4.4a, signal normalized to Fab quantity
Experimental: as §1, §2

| Binder | normalized affinity signal (average) [1] | normalized affinity signal (median) [1] | normalized affinity signal (average) [2] | normalized affinity signal (median) [2] |
| --- | --- | --- | --- | --- |
| wild-type Fab M31-B01 (Fab, V domains shown, Fab with 3×HA-tag and hexa-histidine tag at the C-terminus of the heavy chain, E. coli culture supernatant; also called M31-B01 (parental Fab)) VH: EVQLLESGGGLVQPGGSLRLSCAASGFTFSNAWMSWVRQAPGKGLEWVSYISSSGSTIYYADSVKGRFTISRDNSKNTLYLQMNSLRAEDTAVYYCAREGLWAFDYWGQGTLVTVTS VL: QSVLTQPPSASGTPGQRVTISCTGSSSNIGAGYVVHWYQQLPGTAPKLLIYDNNKRPSGVPDRFSGSKSGTSASLAISGLRSEDEADYYCAAWDDRLNGPVFGGGTKLTVLG | 1.11 | 1.23 | 0.13 | 0.16 |
| M31-B01 Fab HC T56S (Fab, V domains shown, Fab with 3×HA-tag and hexa-histidine tag at the C-terminus of the heavy chain, culture supernatant) VH: EVQLLESGGGLVQPGGSLRLSCAASGFTFSNAWMSWVRQAPGKGLEWVSYISSSGSSIYYADSVKGRFTISRDNSKNTLYLQMNSLRAEDTAVYYCAREGLWAFDYWGQGTLVTVTS VL: QSVLTQPPSASGTPGQRVTISCTGSSSNIGAGYVVHWYQQLPGTAPKLLIYDNNKRPSGVPDRFSGSKSGTSASLAISGLRSEDEADYYCAAWDDRLNGPVFGGGTKLTVLG |  | 1.58 |  | 0.74 |
| M31-B01 Fab HC N31S (Fab, V domains shown, Fab with 3×HA-tag and hexa-histidine tag at the C-terminus of the heavy chain, culture supernatant) VH: EVQLLESGGGLVQPGGSLRLSCAASGFTFSSAWMSWVRQAPGKGLEWVSYISSSGSTIYYADSVKGRFTISRDNSKNTLYLQMNSLRAEDTAVYYCAREGLWAFDYWGQGTLVTVTS VL: QSVLTQPPSASGTPGQRVTISCTGSSSNIGAGYVVHWYQQLPGTAPKLLIYDNNKRPSGVPDRFSGSKSGTSASLAISGLRSEDEADYYCAAWDDRLNGPVFGGGTKLTVLG |  | 1.53 |  | 0.32 |
| M31-B01 Fab HC I57T (Fab, V domains shown, Fab with 3×HA-tag and hexa-histidine tag at the C-terminus of the heavy chain, culture supernatant) VH: EVQLLESGGGLVQPGGSLRLSCAASGFTFSNAWMSWVRQAPGKGLEWVSYISSSGSTTYYADSVKGRFTISRDNSKNTLYLQMNSLRAEDTAVYYCAREGLWAFDYWGQGTLVTVTS VL: QSVLTQPPSASGTPGQRVTISCTGSSSNIGAGYVVHWYQQLPGTAPKLLIYDNNKRPSGVPDRFSGSKSGTSASLAISGLRSEDEADYYCAAWDDRLNGPVFGGGTKLTVLG |  | 1.5 |  | 0.73 |
| M31-B01 Fab HC Y102K (Fab, V domains shown, Fab with 3×HA-tag and hexa-histidine tag at the C-terminus of the heavy chain, culture supernatant) VH: EVQLLESGGGLVQPGGSLRLSCAASGFTFSNAWMSWVRQAPGKGLEWVSYISSSGSTIYYADSVKGRFTISRDNSKNTLYLQMNSLRAEDTAVYYCAREGLWAFDKWGQGTLVTVTS VL: QSVLTQPPSASGTPGQRVTISCTGSSSNIGAGYVVHWYQQLPGTAPKLLIYDNNKRPSGVPDRFSGSKSGTSASLAISGLRSEDEADYYCAAWDDRLNGPVFGGGTKLTVLG | 1.49 |  | 0.21 |  |
| M31-B01 Fab HC Y102W (Fab, V domains shown, Fab with 3×HA-tag and hexa-histidine tag at the C-terminus of the heavy chain, culture supernatant) VH: EVQLLESGGGLVQPGGSLRLSCAASGFTFSNAWMSWVRQAPGKGLEWVSYISSSGSTIYYADSVKGRFTISRDNSKNTLYLQMNSLRAEDTAVYYCAREGLWAFDWWGQGTLVTVTS VL: QSVLTQPPSASGTPGQRVTISCTGSSSNIGAGYVVHWYQQLPGTAPKLLIYDNNKRPSGVPDRFSGSKSGTSASLAISGLRSEDEADYYCAAWDDRLNGPVFGGGTKLTVLG | 1.65 |  | 0.13 |  |
| M31-B01 Fab HC A32Y (Fab, V domains shown, Fab with 3×HA-tag and hexa-histidine tag at the C-terminus of the heavy chain, culture supernatant) VH: EVQLLESGGGLVQPGGSLRLSCAASGFTFSNYWMSWVRQAPGKGLEWVSYISSSGSTIYYADSVKGRFTISRDNSKNTLYLQMNSLRAEDTAVYYCAREGLWAFDYWGQGTLVTVTS VL: QSVLTQPPSASGTPGQRVTISCTGSSSNIGAGYVVHWYQQLPGTAPKLLIYDNNKRPSGVPDRFSGSKSGTSASLAISGLRSEDEADYYCAAWDDRLNGPVFGGGTKLTVLG |  | 2.31 |  | 0.01 |
| M20-D02 S-A Fab LC N95aW (Fab, V domains shown, Fab with 3×HA-tag and hexa-histidine tag at the C-terminus of the heavy chain, culture supernatant) VH: EVQLLESGGGLVQPGGSLRLSCAASGFTFSDYQMTWIRQTPGKGLEWVSGVSWNGARTHYADSVKGRFTISRDNSKNTLYLQMNSLRAEDTAVYYCAKGDYLVYSAYYFDSWGQGTLVTVTS VL: not shown | 0.11 |  |  |  |

Continued, values first:

| normalized affinity signal (average) [1] | normalized affinity signal (median) [1] | normalized affinity signal (average) [2] | normalized affinity signal (median) [2] | Binder |
| --- | --- | --- | --- | --- |
| 2.45 |  | 1.01 |  | M31-B01 Fab LC G95bR (Fab, V domains shown, Fab with 3×HA-tag and hexa-histidine tag at the C-terminus of the heavy chain, culture supernatant) VH: EVQLLESGGGLVQPGGSLRLSCAASGFTFSNAWMSWVRQAPGKGLEWVSYISSSGSTIYYADSVKGRFTISRDNSKNTLYLQMNSLRAEDTAVYYCAREGLWAFDYWGQGTLVTVTS VL: QSVLTQPPSASGTPGQRVTISCTGSSSNIGAGYVVHWYQQLPGTAPKLLIYDNNKRPSGVPDRFSGSKSGTSASLAISGLRSEDEADYYCAAWDDRLNRPVFGGGTKLTVLG |
| 1.11 |  | 0.12 |  | M31-B01 Fab LC N95aK (Fab, V domains shown, Fab with 3×HA-tag and hexa-histidine tag at the C-terminus of the heavy chain, culture supernatant) VH: EVQLLESGGGLVQPGGSLRLSCAASGFTFSNAWMSWVRQAPGKGLEWVSYISSSGSTIYYADSVKGRFTISRDNSKNTLYLQMNSLRAEDTAVYYCAREGLWAFDYWGQGTLVTVTS VL: QSVLTQPPSASGTPGQRVTISCTGSSSNIGAGYVVHWYQQLPGTAPKLLIYDNNKRPSGVPDRFSGSKSGTSASLAISGLRSEDEADYYCAAWDDRLKGPVFGGGTKLTVLG |
| 1.3 |  | 0.13 |  | M31-B01 Fab LC R94M (Fab, V domains shown, Fab with 3×HA-tag and hexa-histidine tag at the C-terminus of the heavy chain, culture supernatant) VH: EVQLLESGGGLVQPGGSLRLSCAASGFTFSNAWMSWVRQAPGKGLEWVSYISSSGSTIYYADSVKGRFTISRDNSKNTLYLQMNSLRAEDTAVYYCAREGLWAFDYWGQGTLVTVTS VL: QSVLTQPPSASGTPGQRVTISCTGSSSNIGAGYVVHWYQQLPGTAPKLLIYDNNKRPSGVPDRFSGSKSGTSASLAISGLRSEDEADYYCAAWDDMLNGPVFGGGTKLTVLG |
|  | 0.77 |  | 0.23 | M31-B01 Fab LC T24S (Fab, V domains shown, Fab with 3×HA-tag and hexa-histidine tag at the C-terminus of the heavy chain, culture supernatant) VH: EVQLLESGGGLVQPGGSLRLSCAASGFTFSNAWMSWVRQAPGKGLEWVSYISSSGSTIYYADSVKGRFTISRDNSKNTLYLQMNSLRAEDTAVYYCAREGLWAFDYWGQGTLVTVTS VL: QSVLTQPPSASGTPGQRVTISCSGSSSNIGAGYVVHWYQQLPGTAPKLLIYDNNKRPSGVPDRFSGSKSGTSASLAISGLRSEDEADYYCAAWDDRLNGPVFGGGTKLTVLG |
| 0.95 |  | 0.32 |  | M31-B01 Fab LC P96A (Fab, V domains shown, Fab with 3×HA-tag and hexa-histidine tag at the C-terminus of the heavy chain, culture supernatant) VH: EVQLLESGGGLVQPGGSLRLSCAASGFTFSNAWMSWVRQAPGKGLEWVSYISSSGSTIYYADSVKGRFTISRDNSKNTLYLQMNSLRAEDTAVYYCAREGLWAFDYWGQGTLVTVTS VL: QSVLTQPPSASGTPGQRVTISCTGSSSNIGAGYVVHWYQQLPGTAPKLLIYDNNKRPSGVPDRFSGSKSGTSASLAISGLRSEDEADYYCAAWDDRLNGAVFGGGTKLTVLG |
|  | 1.12 |  | 0.35 | M31-B01 Fab LC K53Q (Fab, V domains shown, Fab with 3×HA-tag and hexa-histidine tag at the C-terminus of the heavy chain, culture supernatant) VH: EVQLLESGGGLVQPGGSLRLSCAASGFTFSNAWMSWVRQAPGKGLEWVSYISSSGSTIYYADSVKGRFTISRDNSKNTLYLQMNSLRAEDTAVYYCAREGLWAFDYWGQGTLVTVTS VL: QSVLTQPPSASGTPGQRVTISCTGSSSNIGAGYVVHWYQQLPGTAPKLLIYDNNQRPSGVPDRFSGSKSGTSASLAISGLRSEDEADYYCAAWDDRLNGPVFGGGTKLTVLG |

Source: patent publication US20120321619A1 (Bayer, published 2012)
